Reference: PMC6937325, “Tuning PFKFB3 Bisphosphatase Activity Through Allosteric Interference” (Scientific Reports, 2019)
Square brackets hold non-standard residues; d marks the D form. Ends that are not written are not given here.

B1: peptide 5 (SFLLR-CONH2) (peptide)
peptide: SFLLR-NH2
notes: printed as SFLLR-CONH2; picked by virtual screening of ZINC libraries; also called compound 5; source: synthetic peptide
B2: peptide 4 (YSGFLT) (peptide)
peptide: YSGFLT
notes: printed as YSGFLT; picked by virtual screening of ZINC libraries; also called compound 4; source: synthetic peptide

Key:
[1] = target: T1, human inducible phospho-fructokinase bisphosphatase isoform 3, PFKFB3 (human, UniProt Q16875 1-520, RED-NHS label); assay: MST; Nanotemper microscale thermophoresis; compound in MST buffer mixed 1:1 with 100 nM RED-NHS labeled recombinant PFKFB3, incubated 20 min at room temperature; settings: both partners purified
T1 construct: human PFKFB3 (inducible bifunctional enzyme), GenBank AF056320.1; Plasmid from Prof; Yong-Hwan Lee; also called 6-Phosphofructo-2-kinase/fructose-2,6-biphosphatase 3; human inducible bifunctional enzyme; not shown: His tag, N-terminal, cleaved
T1 sequence (Q16875 whole entry, canonical isoform): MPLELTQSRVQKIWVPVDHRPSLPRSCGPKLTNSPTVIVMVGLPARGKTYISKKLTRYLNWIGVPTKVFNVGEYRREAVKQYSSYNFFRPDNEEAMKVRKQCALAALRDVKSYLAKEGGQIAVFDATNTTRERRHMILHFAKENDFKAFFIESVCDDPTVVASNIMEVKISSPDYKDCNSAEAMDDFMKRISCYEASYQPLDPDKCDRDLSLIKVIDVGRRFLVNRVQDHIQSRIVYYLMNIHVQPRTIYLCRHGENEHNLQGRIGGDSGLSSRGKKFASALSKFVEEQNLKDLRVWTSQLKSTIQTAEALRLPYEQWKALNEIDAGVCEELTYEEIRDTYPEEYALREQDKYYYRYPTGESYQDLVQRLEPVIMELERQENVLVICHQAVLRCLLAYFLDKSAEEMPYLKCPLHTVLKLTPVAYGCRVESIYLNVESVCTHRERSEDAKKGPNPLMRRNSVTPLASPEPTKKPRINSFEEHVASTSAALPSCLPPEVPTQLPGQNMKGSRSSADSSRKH

[2] = target: T1, human inducible phospho-fructokinase …; assay: as above; settings: both partners purified; remark: listed apart in the source

| Binder | Kd [1] [µM] | Kd [2] [µM] |
| --- | --- | --- |
| B1 | 44.4 |  |
| B2 | 18.3 |  |
| [dW]-Gly-[dY] [peptide 6 (wGy)] |  | 2.79 |
